Experimental data: patent publication US20250122306A1 (SUTRO BIOPHARMA, published 2025)

B1: SRP2900-A08 (antibody, IgG1, V domains shown)
VH: EVQLVESGGGLVQPGGSLRLSCAASGFTLTGYWIHWVRQAPGKGLEWVGYIDPYNGATYYADSVKGRFTISADTSKNTAYLQMNSLRAEDTAVYYCARADYYYVDEYWDYWGQGTLVTVSS
VL: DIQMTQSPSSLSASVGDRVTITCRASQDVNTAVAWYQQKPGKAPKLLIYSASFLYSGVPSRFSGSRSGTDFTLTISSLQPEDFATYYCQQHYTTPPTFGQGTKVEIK
B2: SRP2900-A09 (antibody, IgG1, V domains shown)
VH: EVQLVESGGGLVQPGGSLRLSCAASGFTIADYWIHWVRQAPGKGLEWVGYIDPYNGATYYADSVKGRFTISADTSKNTAYLQMNSLRAEDTAVYYCARADYYYVDEYWDYWGQGTLVTVSS
VL: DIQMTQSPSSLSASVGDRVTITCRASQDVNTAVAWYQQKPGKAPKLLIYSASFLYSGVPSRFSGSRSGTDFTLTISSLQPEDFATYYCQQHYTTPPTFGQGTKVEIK
B3: SRP2900-A11 (antibody, IgG1, V domains shown)
VH: EVQLVESGGGLVQPGGSLRLSCAASGFTITDYVIHWVRQAPGKGLEWVGYIDPSNGYTYYADSVKGRFTISADTSKNTAYLQMNSLRAEDTAVYYCARDDQSFTSPFDYWGQGTLVTVSS
VL: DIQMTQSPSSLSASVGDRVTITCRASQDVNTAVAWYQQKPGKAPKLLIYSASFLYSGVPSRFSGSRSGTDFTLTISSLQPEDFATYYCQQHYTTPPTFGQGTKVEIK
B4: SRP2900-B01 (antibody, IgG1, V domains shown)
VH: EVQLVESGGGLVQPGGSLRLSCAASGFTISGYWIHWVRQAPGKGLEWVGYIDPYNGATYYADSVKGRFTISADTSKNTAYLQMNSLRAEDTAVYYCARADYYYVDEYLDYWGQGTLVTVSS
VL: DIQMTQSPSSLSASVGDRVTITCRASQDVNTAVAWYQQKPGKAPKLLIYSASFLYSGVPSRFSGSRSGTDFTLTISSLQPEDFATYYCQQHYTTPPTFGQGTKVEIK
B5: SRP2900-B02 (antibody, IgG1, V domains shown)
VH: EVQLVESGGGSVQPGGSLRLSCAASGFTISDYWIHWVRQAPGKGLEWVGYIDPYNGATYYADSVKGRFTISADTSKNTAYLQMNSLRAEDTAVYYCARADYYYVDEYWDYWGQGTLVTVSS
VL: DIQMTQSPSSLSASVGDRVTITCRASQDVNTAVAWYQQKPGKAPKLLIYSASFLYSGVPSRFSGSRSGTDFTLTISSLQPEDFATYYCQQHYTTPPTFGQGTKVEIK
B6: SRP2900-B03 (antibody, IgG1, V domains shown)
VH: EVQLVESGGGLVQPGGSLRLSCSASGFTIADYWIHWVRQAPGKGLEWVGYIDPYNGATYYADSVKGRFTISADTSKNTAYLQMNSLRAEDTAVYYCARADYYYVDEYWDYWGQGTLVTVSS
VL: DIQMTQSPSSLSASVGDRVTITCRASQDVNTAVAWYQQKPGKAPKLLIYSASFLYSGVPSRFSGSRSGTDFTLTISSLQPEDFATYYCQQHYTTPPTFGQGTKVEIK
B7: SRP2900-B04 (antibody, IgG1, V domains shown)
VH: EVQLVESGGGLVQPGGSLRLSCAASGFTISEYWIHWVRQAPGKGLEWVGFIDPYNGYTGYADSVRGRFTISADTSKNTAYLQMNSLRAEDTAVYYCARADYYYVDEYWDYWGQGTLVTVSS
VL: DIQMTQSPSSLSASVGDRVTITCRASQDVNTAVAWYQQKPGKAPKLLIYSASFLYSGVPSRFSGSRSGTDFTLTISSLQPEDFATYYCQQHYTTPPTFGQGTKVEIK
B8: SRP2900-B05 (antibody, IgG1, V domains shown)
VH: EVQLVESGGGLVQPGGSLRLSCAASGFTISGYWIHWVRQAPGKGLEWVGYIDPYNGATYYADSVKGRFTISADTSKNTAYLQMNSLRAEDTAVYYCARADYYGVDEFLDYWGQGTLVTVSS
VL: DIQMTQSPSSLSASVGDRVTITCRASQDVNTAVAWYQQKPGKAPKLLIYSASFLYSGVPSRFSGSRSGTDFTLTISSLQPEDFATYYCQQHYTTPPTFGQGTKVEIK
B9: SRP2900-B06 (antibody, IgG1, V domains shown)
VH: EVQLVESGGGLVQPGGSLRLSCAASGFTIPSYWIHWVRQAPGKGLEWVGYIDPYNGATYYADSVKGRFTISADTSKNTAYLQMNSLRAEDTAVYYCARADYHGVDEYWDYWGQGTLVTVSS
VL: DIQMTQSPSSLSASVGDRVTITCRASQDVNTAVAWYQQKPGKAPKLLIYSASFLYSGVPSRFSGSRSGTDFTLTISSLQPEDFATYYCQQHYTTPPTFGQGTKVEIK
B10: SRP2900-B07 (antibody, IgG1, V domains shown)
VH: EVQLVESGGGLVQPGGSLRLSCAASGFTIADYWIHWVRQAPGKGLEWVGFIDPYNGYTGYADSVKGRFTISADNSKNTAYLQMNSLRAEDTAVYYCARADYHGVDEYWDYWGQGTLVTVSS
VL: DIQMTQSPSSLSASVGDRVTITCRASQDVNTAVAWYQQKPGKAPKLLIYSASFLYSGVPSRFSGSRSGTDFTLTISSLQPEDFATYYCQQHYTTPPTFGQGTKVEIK
B11: SRP2900-B08 (antibody, IgG1, V domains shown)
VH: EVQLVESGGGLVQPGGSLRLSCAASGFTIPSYWIHWVRQAPGKGLEWVGYIDPYNGYTYYADSVKGRFTISADTSKNTAYLQMNSLRAEDTAVYYCARADYYYVDEYFDYWGQGTLVTVSS
VL: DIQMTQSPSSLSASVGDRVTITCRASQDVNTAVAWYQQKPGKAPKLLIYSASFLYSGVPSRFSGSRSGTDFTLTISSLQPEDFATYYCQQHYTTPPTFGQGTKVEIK
B12: SRP2900-B09 (antibody, IgG1, V domains shown)
VH: EVQLVESGGGLVQPGGSLRLSCAASGFTISQYWIHWVRQAPGKGLEWVGFIDPYNGYTNYADSVKGRFTISADTSENTAYLQMNSLRAEDTAVYYCARADYYYVDEYWDYWGQGTLVTVSS
VL: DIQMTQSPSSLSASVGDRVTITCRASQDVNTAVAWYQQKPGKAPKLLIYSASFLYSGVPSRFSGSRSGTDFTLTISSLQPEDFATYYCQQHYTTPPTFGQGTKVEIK
B13: SRP2900-B10 (antibody, IgG1, V domains shown)
VH: EVQLVESGGGLVQPGGSLRLSCAASGFTIPAYWIHWVRQAPGKGLEWVGYIDPYNGSTYYADSVKGRFTISADTSKNTAYLQMNSLRAEDTAVYYCARADYYYVDEYWDYWGQGTLVTVSS
VL: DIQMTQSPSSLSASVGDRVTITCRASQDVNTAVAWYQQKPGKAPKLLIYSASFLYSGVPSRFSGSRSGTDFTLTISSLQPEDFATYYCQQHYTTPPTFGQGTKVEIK
B14: SRP2900-B11 (antibody, IgG1, V domains shown)
VH: EVQLVESGGGLVQPGGSLRLSCAASGFTIPAYWIHWVRQAPGKGLEWVGYIDPSNGYTYYADSVKGRFTISADASKNTAYLQMNSLRAEDTAAYYCARADYHGVDEYWDYWGQGTLVTVSS
VL: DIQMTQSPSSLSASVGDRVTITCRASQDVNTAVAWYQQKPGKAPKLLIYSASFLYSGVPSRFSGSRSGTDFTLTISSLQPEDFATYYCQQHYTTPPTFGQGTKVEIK
B15: SRP2900-C02 (antibody, IgG1, V domains shown)
VH: EVQLVESGGGLVQPGGSLRLSCAASGFTISSYWIHWVRQAPGKGLEWVGYIDPYNGATYYADSVKGRFTISADTSKNTAYLQMNSLRAEDTAVYYCARADYYYVDEYWDYWGQGTLVTVSS
VL: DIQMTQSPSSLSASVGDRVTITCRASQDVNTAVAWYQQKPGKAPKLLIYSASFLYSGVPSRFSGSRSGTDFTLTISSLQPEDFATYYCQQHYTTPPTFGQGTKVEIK
B16: SRP2900-C04 (antibody, IgG1, V domains shown)
VH: EVQLVESGGGLVQPGGSLRLSCAASGFTIVSYWIHWVRQAPGKGLEWVGYIDPYNGATYYADSVKGRFTISADTSKNTAYLQMNSLRAEDTAVYYCARADYYYVDEYWDYWGQGTLVTVSS
VL: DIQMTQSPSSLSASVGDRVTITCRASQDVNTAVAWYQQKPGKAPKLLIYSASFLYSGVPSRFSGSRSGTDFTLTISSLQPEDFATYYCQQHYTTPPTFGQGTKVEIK
B17: SRP2900-C05 (antibody, IgG1, V domains shown)
VH: EVQLVESGGGLVQPGGSLRLSCAASGFTISGYWIHWVRQAPGKGLEWVGYIDPYNGATYYADSVKGRFTISADTPKNTAYLQMNSLRAEDTAVYYCARADYHGVDEYWDYWGQGTLVTVSS
VL: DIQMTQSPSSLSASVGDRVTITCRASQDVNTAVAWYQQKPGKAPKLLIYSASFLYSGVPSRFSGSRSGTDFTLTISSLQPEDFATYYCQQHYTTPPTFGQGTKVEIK
B18: SRP2900-C07 (antibody, IgG1, V domains shown)
VH: EVQLVESGGGLVQPGGSLRLSCAASGFTISGYWIHWVRQAPGKGLEWVGYIDPYNGATYYADSVKGRFTISADTSKNTAYLQMNSLRAEDTAVYYCARADYYYVDEYFDYWGQGTLVTVSS
VL: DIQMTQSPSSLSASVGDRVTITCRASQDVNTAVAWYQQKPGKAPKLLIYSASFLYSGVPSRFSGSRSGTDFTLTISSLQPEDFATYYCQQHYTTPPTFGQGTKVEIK
B19: SRP2900-C10 (antibody, IgG1, V domains shown)
VH: EVQLVESGGGLVQPGGSLRLSCAASGFTISDYWIHWVRQAPGKGLEWVGYIDPYNGYTYYADSVNGRFTISADTSKNTAYLQMNSLRAEDTAVYYCARDYGSYLVSLDYWGQGTLVTVSS
VL: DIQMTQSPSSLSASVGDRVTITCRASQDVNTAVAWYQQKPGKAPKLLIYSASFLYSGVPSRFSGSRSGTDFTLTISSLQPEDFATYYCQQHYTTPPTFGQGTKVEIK
B20: SRP2900-D01 (antibody, IgG1, V domains shown)
VH: EVQLVESGGGLVQPGGSLRLSCAASGFTIHEYWIHWVRQAPGKGLEWVGYIDPANGFTYYADSVKGRFTISADTSKNTAYLQMNSLRAEDTAVYYCARDYGSLQVFLDYWGQGTLVTVSS
VL: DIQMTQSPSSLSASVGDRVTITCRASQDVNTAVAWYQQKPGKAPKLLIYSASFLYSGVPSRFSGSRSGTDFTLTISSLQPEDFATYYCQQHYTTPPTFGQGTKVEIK
B21: SRP2900-D02 (antibody, IgG1, V domains shown)
VH: EVQLVESGGGLVQPGGSLRLSCAASGFTISDYWIHWVRQAPGKGLEWVGYIDPYNGYTYYADSVKGRFTISADTSKNTAYLQMNSLRAEDTAVYYCARDYGSLQVFIDHWGQGTLVTVSS
VL: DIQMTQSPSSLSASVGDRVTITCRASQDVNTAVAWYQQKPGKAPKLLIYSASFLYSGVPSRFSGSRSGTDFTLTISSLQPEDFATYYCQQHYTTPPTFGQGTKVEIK
B22: SRP2900-D03 (antibody, IgG1, V domains shown)
VH: EVQLVESGGGLVQPGGSLRLSCAASGFTISQYWIHWVRQAPGKGLEWVGYIDPYNGYTYYADSVKGRFTISADTSKNTAYLQMNSLRAEDTAVYYCARDYGSLQVQLDYWGQGTLVTVSS
VL: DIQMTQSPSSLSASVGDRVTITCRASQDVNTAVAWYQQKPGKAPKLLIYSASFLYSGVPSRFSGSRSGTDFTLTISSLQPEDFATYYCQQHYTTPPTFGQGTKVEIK
B23: SRP2900-D04 (antibody, IgG1, V domains shown)
VH: EVQLVESGGGLVQPGGSLRLSCAASGFTISDYWIHWVRQAPGKGLEWVGFIDPYNGYTYHADSVEGRFTISADTSKNTAYLQMNSLRAEDTAVYYCARDYGSLQVQLDYWGQGTLVTVSS
VL: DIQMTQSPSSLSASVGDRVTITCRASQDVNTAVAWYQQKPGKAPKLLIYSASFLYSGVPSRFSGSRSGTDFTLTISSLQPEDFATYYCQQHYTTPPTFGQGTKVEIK
B24: SRP2900-D05 (antibody, IgG1, V domains shown)
VH: EVQLVESGGGLVQPGGSLRLSCAASGFAIANYWIHWVRQAPGKGLEWVGYIDPYNGYTYYADSVKGRFTISADTSKNTAYLQMNSLRAEDTAVYYCARDYGSLEVSLDYWGQGTLVTVSS
VL: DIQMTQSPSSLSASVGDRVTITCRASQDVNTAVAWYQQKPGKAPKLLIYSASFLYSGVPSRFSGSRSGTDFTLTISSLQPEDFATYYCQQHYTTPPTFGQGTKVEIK
B25: SRP2900-D06 (antibody, IgG1, V domains shown)
VH: EVQLVESGGGLVQPGGSLRLSCAASGFTISDYWIHWVRQAPGKGLEWVGYIDPQNGWTYYADSVKGRFTISADTSKNTAYLQMNSLRAEDTAVYYCARDYGSLTINLDYWGQGTLVTVSS
VL: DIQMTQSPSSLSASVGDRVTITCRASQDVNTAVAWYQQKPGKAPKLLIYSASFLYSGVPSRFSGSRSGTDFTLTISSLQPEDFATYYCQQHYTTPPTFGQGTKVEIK
B26: SRP2900-D07 (antibody, IgG1, V domains shown)
VH: EVQLVESGGGLVQPGGSLRLSCAASGFTISDYWIHWVRQAPGKGLEWVGYIDPSNGYTYYADSVKGRFTISADTSRNTAYLQMNSLRAEDTAVYYCARDYGSLEVSLDYWGQGTLVTVSS
VL: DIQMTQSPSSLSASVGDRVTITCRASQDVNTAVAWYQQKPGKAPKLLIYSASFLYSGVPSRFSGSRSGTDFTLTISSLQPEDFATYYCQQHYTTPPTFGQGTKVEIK
B27: SRP2900-D08 (antibody, IgG1, V domains shown)
VH: EVQLVESGGGLVQPGGSLRLSCAASGFTISDYWIHWVRQAPGKGLEWVGYIDPYNGYTYYADSVKGRFTISADTSKNTAYLQMNSLRAEDTAVYYCARDYGSLEVSLDYWGQGTLVTVSS
VL: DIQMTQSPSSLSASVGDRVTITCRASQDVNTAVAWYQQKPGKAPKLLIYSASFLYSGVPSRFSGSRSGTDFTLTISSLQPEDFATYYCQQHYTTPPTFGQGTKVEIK
B28: SRP2900-D09 (antibody, IgG1, V domains shown)
VH: EVQLVESGGGLVQPGGSLRLSCAASGFTISGYWIHWVRQAPGKGLEWVGYIDPANGFTYYADSVKGRFTISADTSKNTAYLQMNSLRAEDTAVYYCARDYGSIQVFLDYWGQGTLVTVSS
VL: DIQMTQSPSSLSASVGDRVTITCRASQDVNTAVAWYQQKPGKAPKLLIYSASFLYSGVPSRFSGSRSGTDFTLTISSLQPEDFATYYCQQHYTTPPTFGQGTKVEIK
B29: SRP2900-A01 (antibody, IgG1, V domains shown)
VH: EVQLVESGGGLVQPGGSLRLSCAASGFTISSYWIHWVRQAPGKGLKWVGYIDPYNGATYYADSVKGRFTISADTSKNTAYLQMNSLRAEDTAVYYCARADYYYVDEYFDYWGQGTLVTVSS
VL: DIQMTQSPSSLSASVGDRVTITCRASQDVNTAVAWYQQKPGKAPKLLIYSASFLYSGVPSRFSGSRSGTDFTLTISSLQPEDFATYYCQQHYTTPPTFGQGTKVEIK
B30: SRP2900-D10 (antibody, IgG1, V domains shown)
VH: EVQLVESGGGLVQPGGSLRLSCAASGFTISDYWIHWVRQAPGKGLEWVGFIDPKNGYTYYADSVKGRFTISAGTSKNTAYLQMNSLRAEDTAVYYCARDYGSLQVFIDYWGQGTLVTVSS
VL: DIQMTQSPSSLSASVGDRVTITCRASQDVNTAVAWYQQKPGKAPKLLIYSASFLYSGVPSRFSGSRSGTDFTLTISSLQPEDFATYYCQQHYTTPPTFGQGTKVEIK
B31: SRP2900-D11 (antibody, IgG1, V domains shown)
VH: EVQLVESGGGLVQPGGSLRLSCAASGFTISDYWIHWVRQAPGKGLEWVGYIDPYNGYTYYADSVKGRFTISADTSKNTAYLQMNPLRAEDTAVYYCARDYGSLQVQLDYWGQGTLVTVSS
VL: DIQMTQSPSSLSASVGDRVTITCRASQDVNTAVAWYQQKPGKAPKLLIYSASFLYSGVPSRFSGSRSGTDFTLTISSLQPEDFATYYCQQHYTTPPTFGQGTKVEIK
B32: SRP2900-E01 (antibody, IgG1, V domains shown)
VH: EVQLVESGGGLVQPGGSLRLSCAASGFTISDYWIHWVRQAPGKGLEWVGYIDPSNGYTYYADSVKGRFTISADTSKNTAYLQMNSLRAEDTAVYYCARDYGSLQVFIDYWGQGTLVTVSS
VL: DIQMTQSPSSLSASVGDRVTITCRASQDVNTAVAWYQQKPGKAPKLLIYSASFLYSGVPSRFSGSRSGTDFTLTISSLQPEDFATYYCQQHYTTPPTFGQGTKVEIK

What follows are binders tested against tissue factor reagent of the Tissue Factor Activity Assay Kit (Abcam #ab108906) (UniProt P13726 33-295, limits assumed) (assay: cell-based or functional assay).
Sequence of tissue factor reagent of the Tissue Factor Activity Assay Kit (Abcam #ab108906) (P13726 33-295 limits assumed): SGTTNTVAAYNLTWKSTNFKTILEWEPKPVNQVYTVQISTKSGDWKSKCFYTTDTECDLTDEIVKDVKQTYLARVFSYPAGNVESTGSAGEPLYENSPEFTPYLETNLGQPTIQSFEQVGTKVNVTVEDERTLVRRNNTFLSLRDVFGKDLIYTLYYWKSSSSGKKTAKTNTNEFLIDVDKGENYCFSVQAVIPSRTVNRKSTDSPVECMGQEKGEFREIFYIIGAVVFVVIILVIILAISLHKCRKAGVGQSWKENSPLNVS
With B1 the “FX conversion (% inhibition), 1000 nM antibody” value (“FX conversion (% inhibition)” for short) was 41.9%. For B2, the “FX conversion (% inhibition)” value was 46.9%. In the case of B3, the “FX conversion (% inhibition)” value is reported as 31.7%. In the case of B4, the “FX conversion (% inhibition)” value is reported as 38.7%. B5 was tested, and the “FX conversion (% inhibition)” value was 27%. In the case of B6, the “FX conversion (% inhibition)” value is reported as 44.1%. B7 was tested, and the “FX conversion (% inhibition)” value was 46.3%. For B8, the “FX conversion (% inhibition)” value was 35.5%. In the case of B9, the “FX conversion (% inhibition)” value is reported as 28.2%. For B10, the “FX conversion (% inhibition)” value was 42.2%. For B11, the “FX conversion (% inhibition)” value was 43.3%. B12 was tested, and the “FX conversion (% inhibition)” value was 35%. With B13 the “FX conversion (% inhibition)” value was 33.3%. In the case of B14, the “FX conversion (% inhibition)” value is reported as 22.4%. With B15 the “FX conversion (% inhibition)” value was 29.6%. With B16 the “FX conversion (% inhibition)” value was 36.7%. For B17, the “FX conversion (% inhibition)” value was 35.7%. With B18 the “FX conversion (% inhibition)” value was 41.6%. B19 was tested, and the “FX conversion (% inhibition)” value was 42.1%. B20 was tested, and the “FX conversion (% inhibition)” value was 32.7%. In the case of B21, the “FX conversion (% inhibition)” value is reported as 32.1%. For B22, the “FX conversion (% inhibition)” value was 37.4%. B23 was tested, and the “FX conversion (% inhibition)” value was 46%. B24 was tested, and the “FX conversion (% inhibition)” value was 33.6%. For B25, the “FX conversion (% inhibition)” value was 46.2%. In the case of B26, the “FX conversion (% inhibition)” value is reported as 47.4%. For B27, the “FX conversion (% inhibition)” value was 44.9%. With B28 the “FX conversion (% inhibition)” value was 30%. In the case of B29, the “FX conversion (% inhibition)” value is reported as 37%. For B30, the “FX conversion (% inhibition)” value was 37%. In the case of B31, the “FX conversion (% inhibition)” value is reported as 51.4%. B32 was tested, and the “FX conversion (% inhibition)” value was 40.4%.
